Experimental data from publication PMC8163800, “Extreme parsimony in ATP consumption by 20S complexes in the global disassembly of single SNARE complexes” (Nature Communications, 2021).
One block for each binder: values may come before it.

Assays:
[1] = target: SNARE–αSNAP complex on vesicles (rat | bovine), P60881
[2] = substrate: Nc1ncnc2c1ncn2[C@@H]1O[C@H](COP(=O)(O)OP(=O)(O)OP(=O)(O)O)[C@@H](O)[C@H]1O; assay: ATPase titration, phosphate release by MESG/PNP (ELIPA kit), Hill fit; type: biochemical, Cricetulus griseus; conditions: Hill coefficient 0.58 ± 0.09, 5 mM MgCl2, 50 mM HEPES pH 7.4, 50 mM NaCl, 37 °C

rate of ATP hydrolysis of WT NSF hexamers with soluble SNARE complex (300 nM) and αSNAP (1 μM) against free NSF [1]: 24 fold
B1: N-ethylmaleimide sensitive factor (NSF), wild-type hexamer, P18708 1-744 (enzyme)
chain: MAGRSMQAARCPTDELSLSNCAVVSEKDYQSGQHVIVRTSPNHKYIFTLRTHPSVVPGSVAFSLPQRKWAGLSIGQEIEVALYSFDKAKQCIGTMTIEIDFLQKKNIDSNPYDTDKMAAEFIQQFNNQAFSVGQQLVFSFNDKLFGLLVKDIEAMDPSILKGEPASGKRQKIEVGLVVGNSQVAFEKAENSSLNLIGKAKTKENRQSIINPDWNFEKMGIGGLDKEFSDIFRRAFASRVFPPEIVEQMGCKHVKGILLYGPPGCGKTLLARQIGKMLNAREPKVVNGPEILNKYVGESEANIRKLFADAEEEQRRLGANSGLHIIIFDEIDAICKQRGSMAGSTGVHDTVVNQLLSKIDGVEQLNNILVIGMTNRPDLIDEALLRPGRLEVKMEIGLPDEKGRLQILHIHTARMRGHQLLSADVDIKELAVETKNFSGAELEGLVRAAQSTAMNRHIKASTKVEVDMEKAESLQVTRGDFLASLENDIKPAFGTNQEDYASYIMNGIIKWGDPVTRVLDDGELLVQQTKNSDRTPLVSVLLEGPPHSGKTALAAKIAEESNFPFIKICSPDKMIGFSETAKCQAMKKIFDDAYKSQLSCVVVDDIERLLDYVPIGPRFSNLVLQALLVLLKKAPPQGRKLLIIGTTSRKDVLQEMEMLNAFSTTIHVPNIATGEQLLEALELLGNFKDKERTTIAQQVKGKKVWIGIKKLLMLIEMSLQMDPEYRVRKFLALLREEGASPLDFD

B2: free NSF (NSF hexamer) (Cricetulus griseus) (protein)
chain: B1 chain
notes: N-terminal His-tag cut by thrombin, pET28a
K0.5 [2]: 9 ± 2 µM
